The text below walks through data of patent US20260001914A1, “MACROCYCLIC PEPTIDES TARGETING KRAS” (Merck Sharp & Dohme LLC, priority 2022, published 2026).

Where only a bound is given, the exact number is not on record here.

In test [1] the target is Biotin-labeled KRAS-G12D protein (UniProt P01116-2 1-169, limits assumed, biotin label (site not stated); loaded with BODIPY-GDP). Put plainly: cell-based or functional assay.
The target in test [2] is KRAS-G12D in AsPC-1 cells (UniProt P01116). Put plainly: cell-based or functional assay.

As to “cyclo(FLac-NMeA-PyrimAla-cPrA-3Pal2F-hL-NMeF-amBCP) (peptide)”, the SOS assay EC50 in test [1] came to 31 nM. In addition, the AlphaScreen @18 h, EC50 in test [2] was determined as 4180 nM.
In turn, “cyclo(F-R-3Pal-Nle-Phe2F-Nle-NMeF-aMeC1-C1Ac) (peptide)” returned an SOS assay EC50 in test [1] of 12.8 nM. The substance also registered an AlphaScreen @18 h, EC50 in test [2] greater than 50800 nM.
Substance “cyclo(FLac-NMeA-3Pal-Nle-Phe2F-hL-NMe3Pal-amBCP) (peptide)” had an SOS assay EC50 in test [1] of 2.17 nM. This substance returned an AlphaScreen @18 h, EC50 in test [2] of 4650 nM.
“cyclo(FLac-NMeA-PyrimAla-Nle-Phe2F-Nle-NMe3Pal-SMeamBCP) (peptide)” came in with an SOS assay EC50 in test [1] of 33.5 nM. The substance also had an AlphaScreen @18 h, EC50 in test [2] of 23400 nM.
“cyclo(4Me3Pal-NMeA-3Pal-Nle-Phe2F-Nle-NMe3Pal-amBCP) (peptide)” showed an SOS assay EC50 in test [1] of 2890 nM. In addition, the AlphaScreen @18 h, EC50 in test [2] was greater than 50800 nM.
On the same counts, the results for “cyclo(FLac-NMeA-PyrimAla-cPrA-Phe2F-hcPrA-NMeF-amBCP) (peptide)” are 2 nM and 615 nM.
“cyclo(FLac-R-3Pal-Nle-Phe2F-Nle-NMeF-amBCP) (peptide)” registered an SOS assay EC50 in test [1] of 20.7 nM. The substance also showed an AlphaScreen @18 h, EC50 in test [2] of 39400 nM.
In test [1], “cyclo(FLac-NMeA-PyrimAla-cBuA-Phe2F-Nle3F2-NMeF-amBCP) (peptide)” had an SOS assay EC50 of 2.39 nM. Besides, the AlphaScreen @18 h, EC50 in test [2] was determined as 542 nM.
Substance “cyclo(FLac-NMeA-3Pal-Nle-Phe2F-Nle-NMeF-amBCP) (peptide)” yielded an SOS assay EC50 in test [1] of 50.3 nM. The same substance showed an AlphaScreen @18 h, EC50 in test [2] of 1440 nM.
On the same counts, the results for “cyclo(FLac-NMeA-PyrimAla-Nle-Phe2F-Nle-NMeYOMe-amBCP) (peptide)” are 11 nM and 439 nM.
Consider “cyclo(FLac-NMeS-PyrimAla-Nle-Phe2F-Nle-NMe3Pal-amBCP) (peptide)”, for which the SOS assay EC50 in test [1] was determined as 375 nM. In addition, the AlphaScreen @18 h, EC50 in test [2] is greater than 50800 nM.
On the same counts, the results for “cyclo(FLac-NMeDabN3-PyrimAla-Nle-Phe2F-Nle-NMe3Pal-amBCP) (peptide)” are 80.9 nM and 11600 nM.
In the case of “cyclo(FLac-NMeA-PyrimAla-cBuA-Phe2F-hL-NMeF-amBCP) (peptide)”, in test [1], the SOS assay EC50 amounted to 6.47 nM. The substance also had an AlphaScreen @18 h, EC50 in test [2] of 330 nM.
In the case of “cyclo(F-NMeA~3Pal-Nle-Phe2F-Nle-NMe3Pal-amBCP) (peptide)”, the SOS assay EC50 in test [1] was 313 nM. In test [2], this substance displayed an AlphaScreen @18 h, EC50 greater than 50800 nM.
In test [1], “cyclo(FLac-NMeS-3Pal-Nle-Phe2F-Nle-NMe3Pal-amBCP) (peptide)” gave an SOS assay EC50 of 466 nM. Further, the AlphaScreen @18 h, EC50 in test [2] is greater than 50800 nM.
As for “cyclo(FLac-NMeA-PyrimAla-NleF-Phe2F-Nle-NMeF-amBCP) (peptide)”, the SOS assay EC50 in test [1] turned out to be 2.43 nM. In addition, the AlphaScreen @18 h, EC50 in test [2] worked out at 2030 nM.
For the substance “cyclo(FLac-NMeA-PyrimAla-Nle-Phe2F-NleF-NMeF-amBCP) (peptide)”, the SOS assay EC50 in test [1] amounted to 10.1 nM. In addition, the AlphaScreen @18 h, EC50 in test [2] was determined as 2330 nM.
Turning to “cyclo(FLac-NMeA-PyrimAla-Nle-Phe2F-Nle-NMePhe4Me-amBCP) (peptide)”, the SOS assay EC50 in test [1] is 19.1 nM. In test [2], the AlphaScreen @18 h, EC50 turned out to be 223 nM.
Substance “cyclo(F-DabN3~3Pal-cBuA-V-Nle-NMe3Pal-amBCP) (peptide)” gave an SOS assay EC50 in test [1] of 6560 nM. The same substance gave an AlphaScreen @18 h, EC50 in test [2] greater than 50800 nM.
On the same counts, the results for “cyclo(F-NMeA-3Pal-cBuA-TyrOMe-Ahp-NMeF-aMeC1-C1Ac) (peptide)” are 146 nM and greater than 50800 nM.
“cyclo(F-R-3Pal-cBuA-NvaOMe-Nle-NMeF-aMeC1-C1Ac (peptide)” had an SOS assay EC50 in test [1] of 4410 nM. In addition, in test [2], the AlphaScreen @18 h, EC50 was greater than 50800 nM.
Turning to “cyclo(FLac-NMeA-3Pal-Nle-Phe2F-Nva-NMe3Pal-amBCP) (peptide)”, the SOS assay EC50 in test [1] is 154 nM. The AlphaScreen @18 h, EC50 in test [2] was greater than 50800 nM.
“cyclo(FLac-NMeA~PyrimAla-rF2Cba-Phe2F-Nle-NMe3Pal-amBCP) isomer 2 (peptide)”: the SOS assay EC50 in test [1] came out at 8190 nM. The AlphaScreen @18 h, EC50 in test [2] was greater than 50800 nM.
With “cyclo(FLac-NMeA-PyrimAla-rF2Cba-Phe2F-Nle-NMe3Pal-amBCP) isomer 1 (peptide)”, the SOS assay EC50 in test [1] came to 236 nM. In test [2], this substance yielded an AlphaScreen @18 h, EC50 greater than 50800 nM.
On the same counts, the results for “cyclo(FLac-NMeA-PyrimAla-NleF-Phe2F-NleF-NMeF-amBCP) (peptide)” are 37.4 nM and 3720 nM.
As to “cyclo(4F3Pal-NMeA-3Pal-Nle-Phe2F-Nle-NMe3Pal-amBCP) (peptide)”, in test [1], the SOS assay EC50 came out at 1780 nM. In test [2], this substance showed an AlphaScreen @18 h, EC50 greater than 50800 nM.
Substance “cyclo(FLac-NMeNvaF-3Pal-Nle-Phe2F-Nle-NMe3Pal-amBCP) (peptide)” registered an SOS assay EC50 in test [1] of 297 nM. Also, the AlphaScreen @18 h, EC50 in test [2] came to 20700 nM.
Consider “cyclo(FLac-NMeNvalmid-3Pal-Nle-Phe2F-Nle-NMeF-amBCP) (peptide)”, for which the SOS assay EC50 in test [1] is 28.9 nM. The substance also came in with an AlphaScreen @18 h, EC50 in test [2] of 5160 nM.
On the same counts, the results for “cyclo(FLac-NMeA-PyrimAla-NvaF-Phe2F-hL-NMeF-amBCP) (peptide)” are 7.79 nM and 2260 nM.
As to “cyclo(Phe3Me-NMeA-3Pal-Nle-Phe2F-Nle-NMe3Pal-amBCP) (peptide)”, the SOS assay EC50 in test [1] was 22.3 nM. This substance gave an AlphaScreen @18 h, EC50 in test [2] of 32300 nM.
On the same counts, the results for “cyclo(FLac-NMeA-PyrimAla-cPeA-Phe2F-hL-NMeF-amBCP) (peptide)” are 4.13 nM and 285 nM.
On to “cyclo(FLac-AlaCN-3Pal-Nle-Phe2F-Nle-NMe3Pal-amBCP) (peptide)”, for which the SOS assay EC50 in test [1] was found to be 3750 nM. Besides, the AlphaScreen @18 h, EC50 in test [2] was greater than 50800 nM.
For “cyclo(FLac-NMeA-PyrimAla-L-Phe2F-Nle-NMe3Pal-amBCP) (peptide)”, in test [1], the SOS assay EC50 stood at 4.38 nM. Further, in test [2], the AlphaScreen @18 h, EC50 was greater than 50800 nM.
On the same counts, the results for “cyclo(3Pal-NMeA-3Pal-Nle-Phe2F-Nle-NMe3Pal-amBCP) (peptide)” are 3060 nM and greater than 50800 nM.
For the substance “cyclo(FLac-nMeSMe-3Pal-Nle-Phe2F-Nle-NMe3Pal-amBCP) (peptide)”, in test [1], the SOS assay EC50 was found to be 6410 nM. For the same substance, in test [2], the AlphaScreen @18 h, EC50 was greater than 50800 nM.
For the substance “cyclo(FLac-NMeNvalmid-4CF33Pal-Nle-Phe2F-Nle-NMeF-amBCP) isomer 1 (peptide)”, the SOS assay EC50 in test [1] came out at 188 nM. The substance also returned an AlphaScreen @18 h, EC50 in test [2] greater than 50800 nM.
On the same counts, the results for “cyclo(dF-R-Phe4Gn-Nle-TyrOMe-Nle-NMeF-c3amCblc) (peptide)” are 17.3 nM and greater than 50800 nM.
Substance “cyclo(TyrOMe-NMeA~3Pal-Nle-Phe2F-Nle-NMe3Pal-amBCP) (peptide)” yielded an SOS assay EC50 in test [1] of 756 nM. The substance further returned an AlphaScreen @18 h, EC50 in test [2] greater than 50800 nM.
Substance “cyclo(FLac-NMeDabN3-3Pal-Nle-Phe2F-Nle-NMe3Pal-amBCP) (peptide)” yielded an SOS assay EC50 in test [1] of 87.6 nM. The substance further returned an AlphaScreen @18 h, EC50 in test [2] of 3950 nM.
Regarding “cyclo(Phe4Me-NMeA-3Pal-Nle-Phe2F-Nle-NMe3Pal-amBCP) (peptide)”, the SOS assay EC50 in test [1] was determined as 91.1 nM. Further, the AlphaScreen @18 h, EC50 in test [2] was 37200 nM.
In turn, “cyclo(FLac-NMeA-4F3Pal-Nle-Phe2F-Nva-NMeF-amBCP) (peptide)” yielded an SOS assay EC50 in test [1] of 997 nM. Moreover, the AlphaScreen @18 h, EC50 in test [2] is greater than 50800 nM.
Substance “cyclo(FLac-NMeA-PyrimAla-cBuA-Phe2F-hcPrA-NMeF-amBCP) (peptide)” gave an SOS assay EC50 in test [1] of 4 nM. Moreover, the AlphaScreen @18 h, EC50 in test [2] came to 437 nM.
As to “cyclo(FLac-NMeA-PyrimAla-Nle-Phe2F-hL-NMeF-amBCP) (peptide)”, the SOS assay EC50 in test [1] amounted to 7.87 nM. In test [2], this substance displayed an AlphaScreen @18 h, EC50 of 1110 nM.
